Reference: IntAct's records for PubMed 33762578

B1: E3 ubiquitin-protein ligase NEDD4 (Homo sapiens), P46934-3 (parent)
chain: MAQSLRLHFAARRSNTYPLSETSGDDLDSHVHMCFKRPTRISTSNVVQMKLTPRQTALAPLIKENVQSQERSSVPSSENVNKKSSCLQISLQPTRYSGYLQSSNVLADSDDASFTCILKDGIYSSAVVDNELNAVNDGHLVSSPAICSGSLSNFSTSDNGSYSSNGSDFGSCASITSGGSYTNSVISDSSSYTFPPSDDTFLGGNLPSDSTSNRSVPNRNTTPCEIFSRSTSTDPFVQDDLEHGLEIMKLPVSRNTKIPLKRYSSLVIFPRSPSTTRPTSPTSLCTLLSKGSYQTSHQFIISPSEIAHNEDGTSAKGFLSTAVNGLRLSKTICTPGEVRDIRPLHRKGSLQKKIVLSNNTPRQTVCEKSSEGYSCVSVHFTQRKAATLDCETTNGDCKPEMSEIKLNSDSEYIKLMHRTSACLPSSQNVDCQININGELERPHSQMNKNHGILRRSISLGGAYPNISCLSSLKHNCSKGGPSQLLIKFASGNEGKVDNLSRDSNRDCTNELSNSCKPGWVVLDQPDAACHLQQQQEPSPLPPGWEERQDILGRTYYVNHESRRTQWKRPTPQDNLTDAENGNIQLQAQRAFTTRRQISEETESVDNRESSENWEIIREDEATMYSNQAFPSPPPSSNLDVPTHLAEELNARLTIFGNSAVSQPASSSNHSSRRGSLQAYTFEEQPTLPVLLPTSSGLPPGWEEKQDERGRSYYVDHNSRTTTWTKPTVQATVETSQLTSSQSSAGPQSQASTSDSGQQVTQPSEIEQGFLPKGWEVRHAPNGRPFFIDHNTKTTTWEDPRLKIPAHLRGKTSLDTSNDLGPLPPGWEERTHTDGRIFYINHNIKRTQWEDPRLENVAITGPAVPYSRDYKRKYEFFRRKLKKQNDIPNKFEMKLRRATVLEDSYRRIMGVKRADFLKARLWIEFDGEKGLDYGGVAREWFFLISKEMFNPYYGLFEYSATDNYTLQINPNSGLCNEDHLSYFKFIGRVAGMAVYHGKLLDGFFIRPFYKMMLHKPITLHDMESVDSEYYNSLRWILENDPTELDLRFIIDEELFGQTHQHELKNGGSEIVVTNKNKKEYIYLVIQWRFVNRIQKQMAAFKEGFFELIPQDLIKIFDENELELLMCGLGDVDVNDWREHTKYKNGYSANHQVIQWFWKAVLMMDSEKRIRLLQFVTGTSRVPMNGFAELYGSNGPQSFTVEQWGTPEKLPRAHTCFNRLDLPPYESFEELWDKLQMAIENTQGFDGVD

Variants of: B1
Settings: with spike_sars2 S

Variant	effect of a mutation on the interaction
I843R	increasing interaction strength
R877Q	increasing interaction strength
